Data reported in US20250333512A1.

Legend:
Experiment in all cases: cell-based or functional assay
Design in all cases: AUC (IL-2 ELISA): unit not given beside the values
[1] = molecular target: chimeric receptor containing a rhesus macaque FcγRIIB ectodomain and the CD3ζ intracellular signaling domain (rhesus macaque)
[2] = molecular target: chimeric receptor containing a rhesus macaque FcγRI ectodomain and the CD3ζ intracellular signaling domain (rhesus macaque)
[3] = molecular target: chimeric receptor containing a rhesus macaque FcγRIIA ectodomain and the CD3ζ intracellular signaling domain (rhesus macaque)
[4] = molecular target: chimeric receptor containing a rhesus macaque FcγRIII ectodomain and the CD3ζ intracellular signaling domain (rhesus macaque) (UniProt A3RFZ7)
chimeric receptor containing a rhesus macaque FcγRIII ectodomain and the CD3ζ intracellular signaling domain (rhesus macaque), sequence (A3RFZ7 whole entry, change not shown, the tested form may be a part): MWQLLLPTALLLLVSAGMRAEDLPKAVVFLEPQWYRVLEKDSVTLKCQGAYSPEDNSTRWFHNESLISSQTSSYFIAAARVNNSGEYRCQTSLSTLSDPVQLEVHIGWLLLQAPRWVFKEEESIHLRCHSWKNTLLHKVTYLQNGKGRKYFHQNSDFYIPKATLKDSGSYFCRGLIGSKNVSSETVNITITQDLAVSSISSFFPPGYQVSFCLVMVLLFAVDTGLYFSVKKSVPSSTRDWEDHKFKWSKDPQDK

PGT121 (Mammalian) (antibody), sequence (heavy): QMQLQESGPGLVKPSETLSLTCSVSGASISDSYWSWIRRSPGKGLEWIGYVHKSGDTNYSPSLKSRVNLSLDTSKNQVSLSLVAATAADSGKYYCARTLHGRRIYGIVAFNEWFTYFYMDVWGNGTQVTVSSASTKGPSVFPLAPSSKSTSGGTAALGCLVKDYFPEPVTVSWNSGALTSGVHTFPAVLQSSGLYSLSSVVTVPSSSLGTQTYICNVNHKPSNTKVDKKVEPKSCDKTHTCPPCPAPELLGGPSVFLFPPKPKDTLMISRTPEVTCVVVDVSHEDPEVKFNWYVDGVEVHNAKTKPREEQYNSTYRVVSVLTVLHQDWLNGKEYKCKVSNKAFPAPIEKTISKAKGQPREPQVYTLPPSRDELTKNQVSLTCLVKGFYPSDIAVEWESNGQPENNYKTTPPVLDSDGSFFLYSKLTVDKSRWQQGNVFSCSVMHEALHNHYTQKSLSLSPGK
PGT121 (Mammalian) (antibody), sequence (light): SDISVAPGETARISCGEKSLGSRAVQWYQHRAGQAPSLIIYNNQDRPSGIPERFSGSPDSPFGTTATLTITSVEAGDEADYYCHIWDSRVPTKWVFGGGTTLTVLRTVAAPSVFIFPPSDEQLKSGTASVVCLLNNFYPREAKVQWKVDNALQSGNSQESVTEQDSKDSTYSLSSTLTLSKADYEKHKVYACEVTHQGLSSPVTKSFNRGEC

PGT121 (Mammalian) (antibody)
AUC (IL-2 ELISA) [1]: 0.636
EC50 (IL-2 ELISA) [1]: 3.58 µg/mL
AUC (IL-2 ELISA) [2]: 3.55
EC50 (IL-2 ELISA) [2]: 0.619 µg/mL
AUC (IL-2 ELISA) [3]: 3.74
EC50 (IL-2 ELISA) [3]: 1.72 µg/mL

Nb VRC01-KDEL (antibody)
AUC (IL-2 ELISA) [1]: 0.355
EC50 (IL-2 ELISA) [1]: > 50 µg/mL
AUC (IL-2 ELISA) [4]: 0.37
EC50 (IL-2 ELISA) [4]: > 50 µg/mL
AUC (IL-2 ELISA) [2]: 4.69
EC50 (IL-2 ELISA) [2]: 0.419 µg/mL
AUC (IL-2 ELISA) [3]: 0.334
EC50 (IL-2 ELISA) [3]: > 50 µg/mL

VRC07-523-LS(Mammalian) (antibody)
AUC (IL-2 ELISA) [1]: 1.36
EC50 (IL-2 ELISA) [1]: 1.95 µg/mL
AUC (IL-2 ELISA) [4]: 1.82
EC50 (IL-2 ELISA) [4]: 0.637 µg/mL
AUC (IL-2 ELISA) [2]: 4.37
EC50 (IL-2 ELISA) [2]: 0.303 µg/mL
AUC (IL-2 ELISA) [3]: 4.5
EC50 (IL-2 ELISA) [3]: 0.853 µg/mL

Nb PGT121-KDEL (antibody)
AUC (IL-2 ELISA) [1]: 0.4
EC50 (IL-2 ELISA) [1]: > 50 µg/mL
AUC (IL-2 ELISA) [4]: 0.934
EC50 (IL-2 ELISA) [4]: 3.57 µg/mL
AUC (IL-2 ELISA) [2]: 4.46
EC50 (IL-2 ELISA) [2]: 0.548 µg/mL
AUC (IL-2 ELISA) [3]: 0.401
EC50 (IL-2 ELISA) [3]: > 50 µg/mL

Nb PGT121-YTE (antibody)
AUC (IL-2 ELISA) [1]: 0.256
EC50 (IL-2 ELISA) [1]: > 50 µg/mL
AUC (IL-2 ELISA) [4]: 0.226
EC50 (IL-2 ELISA) [4]: > 50 µg/mL
AUC (IL-2 ELISA) [2]: 3.99
EC50 (IL-2 ELISA) [2]: 0.735 µg/mL
AUC (IL-2 ELISA) [3]: 0.246
EC50 (IL-2 ELISA) [3]: > 50 µg/mL

VRC07-523 (Mammalian) (antibody)
AUC (IL-2 ELISA) [1]: 1.26
EC50 (IL-2 ELISA) [1]: 2.1 µg/mL
AUC (IL-2 ELISA) [4]: 1.46
EC50 (IL-2 ELISA) [4]: 1.21 µg/mL
AUC (IL-2 ELISA) [2]: 4.14
EC50 (IL-2 ELISA) [2]: 0.326 µg/mL
AUC (IL-2 ELISA) [3]: 4.15
EC50 (IL-2 ELISA) [3]: 0.722 µg/mL
